According to article PMC9648850:

System: RtrC (Caulobacter crescentus (NA1000?))
Test: EMSA
Details: 200 mM NaCl, 50 ng/ul poly(dI-dC), EMSA: 32.5 mM Tris pH 8 (at 4 C), 200 mM NaCl (chases: 30 mM Tris, 150 mM NaCl), 1 mM EDTA, 30% glycerol, 1 mM DTT, 10 ug/ml BSA, 20 C …

hfiA promoter probe, labeled
Kd: 45 nM
